Measured values reported in the RNAGym collection of RNA variant scans (doi:10.1073/pnas.2313332121).

B1: TPR t1 (parent)
chain: GACCAAUCUGCCCUCAGAGCUCGAGAACAUCUUCGGAUGCAGAGGAGGCAGGCUUCGGUGGCGCGAUAGCGCCAACGUCCUCAACCUCCAAUGCAUCCCACCACAUGAUGAUGCCUGAAGAGCCUUGGUUUUUUG

Variants of: B1
Assay: polymerase ribozyme fitness, log enrichment relative to wild type (log ratio); higher = more active; in vitro selection for triplet polymerase activity
Outline: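 After PCR construction and transcription, each subunit's mutant library from a heterodimeric triplet polymerase ribozyme was annealed with a biotinylated primer, the partner subunit and triplets. Incubation was frozen, at −7 °C, and extended constructs were gel-excised, bound to streptavidin beads and amplified by RT-PCR, in one selection round done in triplicate. Fitness is the logarithm of a genotype's enrichment divided by that of the wild type, from inverse-variance-weighted replicate averages of Illumina-sequenced inputs and outputs. The base of the logarithm is 2, and genotypes needed ≥10 input reads and ≥1 read per output.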

Row | Variant | polymerase ribozyme fitness (log ratio)
1 | A5G C11G C28U U59G A118G G127U G135U | -2.91
2 | A5U C70U C89U G110U | -2.97
3 | A5U A6G G69U C86A C102A | -2.02
4 | A6C C11U C49A C101A | -2.17
5 | A5U G17C A18U C20U A46C U59A A121G G127C | -5.48
6 | A5U G44A C56A C124A G128U U132G U133C | -2.5
7 | A5C G63A G69U C101U | -1.54
8 | A5G C13U A46U C56A C72G U78A G110A | -3.02
9 | A5G G52U U92C C114G | -5.18
10 | A5U C85A C88U A100U A111G | -2.1
11 | A5C U7C A74C A90U | -1.47
12 | A5G A26C A100U U106A C124A | -1.48
13 | A5G G10U C72G C86U C97U C114A | -3.98
14 | A5G C53A | 0.65
15 | A5U G127U | -2.48
16 | A5U G19A G69U C72G U112G | -3.83
17 | A5U A26G | -2.87
18 | A6C C15G U55G C94G C124G G127A | -3.17
19 | A5U G36C | -1.42
20 | A5C G60C | -0.361
21 | A5U C13G C53G A118U | -2.18

Row | Variant | polymerase ribozyme fitness (log ratio)
22 | A5U A29U G71A U78G C123A G128U | -4.18
23 | A5U C13G C49A G63U U81G A121C | -3.63
24 | A5U G51U | -3.03
25 | A6C C15U C70U C101A U130G | -4.08
26 | A5G C15U C72A C101U C124U | 0.428
27 | A5G G57U A100U | -1.5
28 | A5U C72G U81C | -1.14
29 | A5U C62G | -1.69
30 | A5G C12A U132A U133A | -1.41
31 | A5U U7G G47A C72A | -0.365
32 | A5C G51A C62U U78G | -3.87
33 | A5U U9A | -0.246
34 | A5G U55C C72A C73A G77U A121C | -1.86
35 | A6C A100U | -0.814
36 | A6C A26G U38G C53G | -5.37
37 | A5U G51A G113A C124A | -3.34
38 | A5U C56G A74U G110A U116G C124G G135U | -6.08
39 | A5U A18C G57U C72U | -2.48
40 | A5G G48U G69A C89U C98U A121G | -3.81
41 | A5U G44C | -1.05
42 | A5G U32G A50C C101U G113C C114U U131C | -5.64

Row | Variant | polymerase ribozyme fitness (log ratio)
43 | A5U G47A C101U | -1.94
44 | A5U U7A C40G U55G C56U G60A U130C | -1.94
45 | A5U C80G | -5.2
46 | A5U U55G A95U U129G | -1.03
47 | A5U G19A C40A A111G | -2.76
48 | A5U C22A U112A | -2.64
49 | A5U G60C U96A C101A A119U | -2.53
50 | A5G C11U G48U G69A U131C | -3.72
51 | A6C A50C U59C C72U U92G | -4.39
52 | A5C U112G U130C | -0.277
53 | A5U C20A C40A G113C C115U | -4.07
54 | A5U C73U G122A U129A | -2.07
55 | A5G A29C | -1.82
56 | A6C C13A A37U C82U | -2.7
57 | A6C C11G G36U C40G U106A U130A | -4.89
58 | A5U C11G A16U G60U A103C | -5.34
59 | A5U G10A C11A C72G G110A | -1.86
60 | A5U G44A A46U C56U U126G U133A | -2.99
61 | A5G G36U A46U G60U A91G U106A | -4.94
62 | A5G C11G A16G G63U A74C G77U A95C G117U | -2.32
63 | A6C C8G C72A | 0.431

Row | Variant | polymerase ribozyme fitness (log ratio)
64 | A6C A41C C94A U129G | -4.39
65 | A5G A83C U126A | -1.99
66 | A5U G117C | -2.92
67 | A5G C89U | -0.12
68 | A6C C11U G69A A91C | -6.12
69 | A5C G48A C82G | -1.18
70 | A5U C13G C40U U55A U59A C82G | -2.63
71 | A5G G47U C62A G71C | -1.95
72 | A5U C70G A119G | -0.737
73 | A5U C12U A18G C80U C114U | -4.01
74 | A5U A41G U55A C70G | -3.9
75 | A5G C13A G61A | -1.98
76 | A5U C11G A29G G63A U87G | -1.98
77 | A5C G117C | -3.15
78 | A5G C72G U87A A118U | -1.92
79 | A6C C22U C62U C79U C99U | -5.96
80 | A5C U7C G17U C86G | -3.53
81 | A5U C20G A121C C123U | -3.97
82 | A5G G57A G69C | -1.65
83 | A5G G60A | -0.271
84 | A5C G51A C86G | -4.05
